{
  "source": "paper doi:10.1101/2025.09.30.679617",
  "about": "(bioRxiv, 2025)",
  "note": "Ends that are not written are not given here.",
  "data": [
    {"target": "T1, PfCSP junctional peptide 21 (Plasmodium falciparum, strain not …, also: biotinylated, position not given here)", "T1 chain": "NPDPNANPNVDPNAN", "values": [
      {"binder": "Run6_Seq1 (antibody, V domains shown) VH: QVQLVQSGAEVRKPGASVKVSCKASGYTFTRYAIHWVRQAPGQRLEWMGWIKAGNGNTRYSQKFQGRVSIIRDTSASTVYMDLSGLRSEDTAVYYCALLTVITPDDAFDIWGQGTMVTVSS VL: not shown", "binding result": "binds"},
      {"binder": "Run6_Seq2 (antibody, V domains shown) VH: QVQLVQSGAEVRKPGASVKVSCKASGYTFTRYAIHWVRQAPGQRLEWMGWIKAGNGNTRYSQNFQGRVSIIRDTSASTAYMDLSGLRSEDTAVYYCALLTVITPDDAFDIWGQGTMVTVSS VL: not shown", "binding result": "binds"},
      {"binder": "SFR6 (antibody, V domains shown) VH: QVHLVQSGAEVKKPGASVKVSCKASGYTFSSYAIHWVRQAPGQRLDWMGWIKGGNGDTRYSETFQDRVTISRDTSATTVYMELSSLRSEDTAMYFCALLTVIRRDDTFDIWGQGTMVTVSS VL: DIVLTQSPDSLAVSLGERATINCKSSQNIFFNSNKKNYLAWYQQKPRQPPKLLFYWASTRESGVPDRFSGSGSGTDFTLTISSLQAEDVAVYYCHQFYSTPLTFGGGTKVEIK", "binding result": "binds"},
      {"binder": "Run3_Seq2 (antibody, V domains shown) VH: QVQLVQSGAEVRKPGASVKVSCKASGYTFTTYAIHWVRQAPGQRLEWMGWIKGGNGDTRYSQKFQGRLTITRDTFASTAYMELSSLRSEDTAVYYCALLTVVTPDDTFDIWGQGTMVTVSS VL: not shown", "binding result": "binds"},
      {"binder": "Run1_Seq1 (antibody, V domains shown) VH: QVQLVQSGTEVKKPGASVKVSCKASGYTFTSYAIHWVRQAPGQRLEWMGWIKVGNGNTRYSQKFQGRVTITRDTSASTAYMELSSLRSEDTAVYYCALLTVLTADDAFDFWGQGTMVTVSS VL: not shown", "binding result": "binds"},
      {"binder": "Run7_Seq2 (antibody, V domains shown) VH: QVQLVQSGAEVKKPGASVKVSCKASGYTFTSYAMHWVRQAPGQRLEWLGWIKAGNGNTRYSQRFQGRVTITGDTSASTAYMELRSLRSEDTAVYYCALLTVITPDDAFDIWGQGTMVTVSS VL: not shown", "binding result": "binds"},
      {"binder": "Run3_Seq1 (antibody, V domains shown) VH: QVQLVQSGAEVRKPGASVKVSCKASGYTFTTYAIHWVRQAPGQRLEWMGWIKADNGNTRYSQKFQGRVTITRDTFASTAYMELSSLRSEDTAVYYCALLTVVTPDDTFDIWGQGTMVTVSS VL: not shown", "binding result": "binds"},
      {"binder": "Run4_Seq2 (antibody, V domains shown) VH: QVQLVQSGTEVKKPGASVKVSCKASGYTFTSYAVHWVRQAPGQRLEWMGWIKAGNGNTRYSQKFQGRVTITRDTSASTVYMELSSLRSEDTAVYYCALLTVITPDDAFDVWGQGTMVTVSS VL: not shown", "binding result": "binds"},
      {"binder": "Run1_Seq2 (antibody, V domains shown) VH: QVQLVQSGTEVKKPGASVKVSCKASGYTFTSYAIHWVRQAPGQRLEWMGWIKVGNGNTRYSQKFQGRVTITRDTSANTAYMELSSLRSEDTAVYYCALLTVLTPDDAFDFWGQGTMVTVSS VL: not shown", "binding result": "binds"},
      {"binder": "Run5_Seq1 (antibody, V domains shown) VH: QVQLVQSGAEVKKPGASVKVSCKASGYTFTSYAIHWVRQAPGQRLEWMGWIKAGKGNTRYSQKFQGRITITRDTSASTVYMELNSLRSEDTAVYYCALLTVITPDYAFDIWGQGTMVTVSS VL: not shown", "binding result": "binds"},
      {"binder": "Run5_Seq2 (antibody, V domains shown) VH: QVQLVQSGAEVKKPGASVKVSCKASGYTFTSYAIHWVRQAPGQRLEWMGWIKAGNGNTRYSQKFQGRITITRDTSASTAYMELSSLRSEDTAVYYCALLTVITPDYAFDIWGQGTMVTVSS VL: not shown", "binding result": "binds"},
      {"binder": "Run2_Seq2 (antibody, V domains shown) VH: QVQLVQSGAEVKKPGASVKVSCKASGYTFTNYAIHWVRQAPGQRLEWMGWIKAGNGNTRYSQKFQDRVTLTRDTSASTAFMELSSLRSEDTAVYYCALLTVVTPDDAFDIWGQGTLVTVSS VL: not shown", "binding result": "binds"},
      {"binder": "Run2_Seq1 (antibody, V domains shown) VH: QVQLVQSGAEVKKPGASVKVSCKASGYTFTSYAIHWVRQAPGQRLEWMGWIKAGNGNTRYSQKFQGRVTLTRDTSASTAYMELNSLRSEDTAVYYCALLTVVTPDDVFDIWGQGTMVTVSS VL: not shown", "binding result": "binds"},
      {"binder": "Run7_Seq1 (antibody, V domains shown) VH: QVQLVQSGAEVKKPGASVKVSCKASGYTFTKYAMHWVRQAPGQRLEWLGWIKAGNGNTRYSQRFQDRVTITRDTSASTAYMELSSLRSEDTAVYYCALLTVITPDDAFDIWGQGTMVTVSS VL: not shown", "binding result": "binds"},
      {"binder": "Run4_Seq1 (antibody, V domains shown) VH: QVQLVQSGTEVKKPGASVKVSCKASGYTFTSYAIHWVRQAPGQRLEWMGWIKAGNGNTRYSQKFQGRVTITRDTSASTVYMELSSLRSEDTAVYYCALLTVITPDDAFDVWGQGTMVTVSS VL: not shown", "binding result": "binds"},
      {"binder": "SFR1 (antibody, V domains shown) VH: QVHLVQSGAEVKKPGASVKVSCKASGYTFSRYAIHWVRQAPGQRLEWMGWIKGGNGDTRYSQKFQDRVTITRDTSASTVYMDLSSLRSEDTAVYYCALLTVIRKDDTFDVWGQGTMVTVSS VL: not shown", "binding result": "binds"},
      {"binder": "SFR2 (antibody, V domains shown) VH: QVHLVQSGAEVKKPGASVKVSCKASGYTFSRYAIHWVRQAPGQRLEWMGWIKGGNGDTRYSQKFQDRVTITRDTSASTVYMELSSLRSEDTAVYFCALLTVIRKDDTFDVWGQGTMVTVSS VL: not shown", "binding result": "binds"},
      {"binder": "SFR4 (antibody, V domains shown) VH: QVHLVQSGAEVKKPGASVKVSCKASGYTFSTYAIHWVRQAPGQRLEWMGWIKGGNGDTRYSQKFQGRVTITRDTSASTVYMELSSLRSEDTAVYYCALLTVIRLDETFDVWGQGTMVTVSS VL: not shown", "binding result": "binds"}
    ]}
  ]
}
